We go through one sequence from PMC12463490.

This series deals with T1, rCCN2 (cellular communication network factor 2) (UniProt P29279).
T1 sequence: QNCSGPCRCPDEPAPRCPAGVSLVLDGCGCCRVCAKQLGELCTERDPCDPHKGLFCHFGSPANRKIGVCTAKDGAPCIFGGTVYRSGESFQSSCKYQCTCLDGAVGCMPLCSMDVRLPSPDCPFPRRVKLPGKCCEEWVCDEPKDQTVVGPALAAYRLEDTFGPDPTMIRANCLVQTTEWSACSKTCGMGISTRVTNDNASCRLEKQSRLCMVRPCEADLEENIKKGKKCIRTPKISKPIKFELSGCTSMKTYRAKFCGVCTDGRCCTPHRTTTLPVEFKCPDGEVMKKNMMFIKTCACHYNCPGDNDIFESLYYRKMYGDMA
Put plainly: EMSA. As to conditions: 20 mM HEPES (pH not stated), 45 mM KCl, 10 mM NaCl, 1 mM DTT, 0.1% NP-40, 10% glycerol, 4 C overnight; 4% polyacrylamide gel in TBE.

With “GCACACATGCTTCCTGTGGTGACTGGGCGCTTCCTGTTTTCTCAGGCACCGGCCTTGCTGCTGCCGATGTGGAAACAGGGGCAGCTGCAGCCAGGGCGGCTCCAGGCTGGGCACTCTGACCCTGCCCAGAAGGGAGTGAGGGGGCCCACCACCCTTAGACTTACGATCTAGACAGTGGGT (double strand) [Spi1 proximal promoter probe (178 bp)]”, the binding entry is listed as “binds”.
